Reference: PMC11018632, “The CB1 receptor interacts with cereblon and drives cereblon deficiency-associated memory shortfalls” (EMBO Molecular Medicine, 2024)
Values belong to the binder of their own block, whether it stands above or below them.

Experiments:
[1] = target: T1, 5-IAF-labelled 6xHis-tagged human CB1R carboxy-terminal domain (hCB1R-CTD, amino acids 400-472) (human, UniProt P21554 400-472, labelled with 5-(iodoacetamido)fluorescein (5-IAF)); assay: FP
T1 chain: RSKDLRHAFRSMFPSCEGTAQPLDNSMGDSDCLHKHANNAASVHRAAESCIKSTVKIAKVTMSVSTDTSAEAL

[2] = target: T2, 6xHis-tagged human cereblon (hCRBN), recombinant (human, UniProt Q96SW2 1-442); assay: fluorescence polarisation; saturation binding; constant 100 nM 5-IAF-hCB1R-CTD and increasing amounts of hCRBN (~0-100 µM); fitted to a one-site equation for Kd; conditions: both partners purified
T2 construct: cereblon/CRBN, human; human CRBN cDNA inserted in the pBH4 vector; the introduction speaks of the 442 amino-acid protein; No tag cleavage is described; also called His6-tagged CRBN; unlabelled human CRBN

Kd [1]: 2810 nM
B1: 6xHis-tagged human cereblon (hCRBN), recombinant (natural protein)
chain: MAGEGDQQDAAHNMGNHLPLLPAESEEEDEMEVEDQDSKEAKKPNIINFDTSLPTSHTYLGADMEEFHGRTLHDDDSCQVIPVLPQVMMILIPGQTLPLQLFHPQEVSMVRNLIQKDRTFAVLAYSNVQEREAQFGTTAEIYAYREEQDFGIEIVKVKAIGRQRFKVLELRTQSDGIQQAKVQILPECVLPSTMSAVQLESLNKCQIFPSKPVSREDQCSYKWWQKYQKRKFHCANLTSWPRWLYSLYDAETLMDRIKKQLREWDENLKDDSLPSNPIDFSYRVAACLPIDDVLRIQLLKIGSAIQRLRCELDIMNKCTSLCCKQCQETEITTKNEIFSLSLCGPMAAYVNPHGYVHETLTVYKACNLNLIGRPSTEHSWFPGYAWTVAQCKICASHIGWKFTATKKDMSPQKFWGLTRSALLPTIPDTEDEISPDKVILCL

binding result [2]: binds
B2: 5-IAF-labelled 6xHis-tagged human CB1R carboxy-terminal domain (hCB1R-CTD, amino acids 400-472) (domain or fragment, UniProt P21554 400-472, looked up)
chain: T1 chain
modifications: labelled with 5-(iodoacetamido)fluorescein (5-IAF)
notes: type-1 cannabinoid receptor (CB1R), human, carboxy-terminal domain, amino acids 400-472; The construct was made in earlier work (Costas-Insua et al, 2021); The results section gives aa 408-472 for the CTD of the earlier proteomic screen; also called 5-IAF-hCB1R-CTD; His6-tagged CB1R-CTD
